Test results from patent US20100227824A1 (SYMTHERA CANADA, published 2010).
Ends that are not written are not given here. * marks the point of attachment. Biotin = O=C1N[C@H]2[C@H](CS[C@H]2CCCCC(=O)*)N1

B1: Chemokine Binding Peptide 5 (CBP5) (peptide)
peptide: Biotin-LFGNDCE
notes: Synthetic biotinylated peptide, not phage-presented

Experiments:
MCP-1 (CCL2) = molecular target: T1, MCP-1 (CCL2) (UniProt P13500 24-99); assay: micro-array, biotinylated peptide on printed CK
T1 construct: Bought chemokine
T1 sequence (P13500 24-99 limits assumed): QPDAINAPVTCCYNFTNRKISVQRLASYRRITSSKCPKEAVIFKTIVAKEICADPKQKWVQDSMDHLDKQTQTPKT

Exodus-2 (CCL21) = molecular target: T2, Exodus-2 (CCL21) (UniProt O00585 24-134); assay: micro-array, biotinylated peptide on printed CK
T2 construct: Bought chemokine
T2 sequence (looked up): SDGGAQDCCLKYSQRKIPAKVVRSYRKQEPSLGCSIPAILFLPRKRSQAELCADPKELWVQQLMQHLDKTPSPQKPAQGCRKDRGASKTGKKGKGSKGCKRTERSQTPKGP

SDF-1α (CXCL12) = molecular target: T3, SDF-1α (CXCL12) (UniProt P48061-2 22-89); assay: micro-array, biotinylated peptide on printed CK
T3 construct: Alpha isoform of CXCL12; also called SDFα
T3 sequence (P48061 22-89 limits assumed): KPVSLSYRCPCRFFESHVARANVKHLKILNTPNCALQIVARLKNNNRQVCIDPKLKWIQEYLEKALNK

RANTES (CCL5) = molecular target: T4, RANTES (CCL5) (UniProt P13501 24-91); assay: micro-array, biotinylated peptide on printed CK
T4 construct: Bought chemokine
T4 sequence (looked up): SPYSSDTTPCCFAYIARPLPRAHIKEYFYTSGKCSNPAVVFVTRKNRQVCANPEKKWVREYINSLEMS

Mig (CXCL9) [1] = molecular target: T5, Mig (CXCL9) (UniProt Q07325 23-125); assay: micro-array, biotinylated peptide on printed CK
T5 construct: Bought chemokine
T5 sequence (looked up): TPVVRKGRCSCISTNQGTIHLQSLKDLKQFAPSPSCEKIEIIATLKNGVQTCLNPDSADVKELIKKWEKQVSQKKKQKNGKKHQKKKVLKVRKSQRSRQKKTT

TECK (CCL25) = molecular target: T6, TECK (CCL25) (UniProt O15444 24-150); assay: micro-array, biotinylated peptide on printed CK
T6 construct: Bought chemokine
T6 sequence (looked up): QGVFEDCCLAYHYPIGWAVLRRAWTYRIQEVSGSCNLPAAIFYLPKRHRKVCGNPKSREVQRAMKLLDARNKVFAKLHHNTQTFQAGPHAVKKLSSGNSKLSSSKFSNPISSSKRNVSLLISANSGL

SDF-1β (CXCL12) = molecular target: T7, SDF-1β (CXCL12) (UniProt P48061 22-93); assay: micro-array, biotinylated peptide on printed CK
T7 construct: Beta isoform of CXCL12; also called SDFβ
T7 sequence (P48061 22-93 limits assumed): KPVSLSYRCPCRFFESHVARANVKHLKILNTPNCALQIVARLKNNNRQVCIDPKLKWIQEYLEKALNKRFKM

MIP-3α (CCL20) = molecular target: T8, MIP-3α (CCL20) (UniProt P78556 27-96); assay: micro-array, biotinylated peptide on printed CK
T8 construct: Bought chemokine
T8 sequence (P78556 27-96 limits assumed): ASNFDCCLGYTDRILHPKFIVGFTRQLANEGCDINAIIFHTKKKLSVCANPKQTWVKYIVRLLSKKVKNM

Eotaxin (CCL11) = molecular target: T9, Eotaxin (CCL11) (UniProt P51671 24-97); assay: micro-array, biotinylated peptide on printed CK
T9 construct: Bought chemokine
T9 sequence (P51671 24-97 limits assumed): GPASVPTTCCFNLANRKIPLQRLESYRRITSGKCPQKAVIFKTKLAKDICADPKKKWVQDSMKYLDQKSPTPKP

MCP-4 (CCL13) = molecular target: T10, MCP-4 (CCL13) (UniProt Q99616 24-98); assay: micro-array, biotinylated peptide on printed CK
T10 construct: Bought chemokine
T10 sequence (Q99616 24-98 limits assumed): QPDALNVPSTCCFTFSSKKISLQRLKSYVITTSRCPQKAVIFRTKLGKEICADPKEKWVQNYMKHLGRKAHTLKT

I-309 (CCL1) = molecular target: T11, I-309 (CCL1) (UniProt P22362 23-96, limits assumed); assay: micro-array, biotinylated peptide on printed CK
T11 construct: Bought chemokine
T11 sequence (looked up): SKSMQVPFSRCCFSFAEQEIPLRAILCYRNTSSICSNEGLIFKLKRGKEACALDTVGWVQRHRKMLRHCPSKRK

Eotaxin 3 (CCL26) = molecular target: T12, Eotaxin 3 (CCL26) (UniProt Q9Y258 24-94); assay: micro-array, biotinylated peptide on printed CK
T12 construct: Bought chemokine
T12 sequence (looked up): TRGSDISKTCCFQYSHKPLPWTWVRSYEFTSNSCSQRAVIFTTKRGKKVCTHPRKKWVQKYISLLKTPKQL

Mig (CXCL9) [2] = molecular target: T5, Mig (CXCL9); assay: SPR, ProteOn XPR36, GLM chip
Protocol: (§1) Surface Plasmon Resonance (SPR): SPR was performed to make a quantitative determination of CK-peptide affinity. SPR measures the apparent equilibrium dissociation constant (KD) of the CK-binding peptide in the CK-peptide complex. KD is the ratio of the rate constants, Kd (1/s) and Kₐ (1/Ms), Kd/Kₐ. SPR was done with the ProteOn XPR36-Protein Interaction Array System (BioRad, Israel) with the Sensor Chip, GLM (sensor range 12-15 K response units).
(§2) Summary of Results: Affinity of Chemokine—Peptide Inteaction. […] The affinity with which peptides interact with CKs is relevant for low affinity reagents that are intended to engage multiple disease-related target proteins. SPR analysis was employed to determine the apparent equilibrium dissociation constants (KD) of CK-peptide complexes. […] Peptide binding in the micro-milli molar range is low affinity interaction. SPR analysis also corroborated differential binding measurements made by the micro-array analysis (FIG. 25b).

IL-8 (CXCL8) = molecular target: T13, IL-8 (CXCL8) (UniProt P10145 28-99, limits assumed); assay: SPR, ProteOn XPR36, GLM chip
T13 construct: also called IL-8(72aa); IL-8(77aa)
T13 sequence (looked up): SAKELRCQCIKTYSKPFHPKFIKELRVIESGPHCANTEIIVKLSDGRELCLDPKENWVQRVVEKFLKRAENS
Protocol: as §1, §2

Row | Binder | binding result (MCP-1 (CCL2)) | binding result (Exodus-2 (CCL21)) | binding result (SDF-1α (CXCL12)) | Relative Fluorescence Units (RFU) (RANTES (CCL5)) | binding result (Mig (CXCL9) [1]) | binding result (TECK (CCL25)) | binding result (SDF-1β (CXCL12)) | binding result (MIP-3α (CCL20)) | Relative Fluorescence Units (RFU) (Eotaxin (CCL11)) | Relative Fluorescence Units (RFU) (MCP-4 (CCL13)) | binding result (I-309 (CCL1)) | Relative Fluorescence Units (RFU) (Eotaxin 3 (CCL26)) | Kd (Mig (CXCL9) [2]) [µM] | Kd (IL-8 (CXCL8)) [µM]
1 | B1 | binds | binds | binds | > 2500 | binds | binds | binds | binds | > 2500 | > 2500 | binds | > 2500 | – | –
2 | VTTFFDYDYGAPC (Peptide used in SPR; also called CB6R2) [CBP6 (VTTFFDYDYGAPC, from the N-terminal of CCR2)] | – | – | – | – | – | – | – | – | – | – | – | – | 28.2 | 1060
